In the DeepSol protein solubility set:

Assay: soluble on expression in E. coli; label from the status in PepcDB or PDB records

Row | Sequence | soluble on expression in E. coli
1 | MSLRKFSLIMATYGRKDEVGCFLESLMNSNYPMDKVEVIIVDQNKEIDLEPIISKYKEKIKVVHIKSNERGLALNRNKGLEIATGDIIAFPDDDCEYLVDTLNIVNNYFENEHCDLLMGRIVERNGEDSLREWPKEKIEINKNNFYTKCSSVTMFLDSKKCFVKFNDQLGAGKYFGACEDADLIYKNCKKGLKIIYNPELQIYHPHYDSNSNMDDKKIYSYGLGFGAMVKSNFDFSMLILFIKAEGYHFLKSLIYLITFKTTKSKRSWLAFKSRIKGFFEYKNEGHHHHHH | soluble
2 | MSLRQLLQKRAMQSPNLEALVGGKKRYSFQQYNERVNQLAHYLLHNGVQRGDRIGILCKNNHPFPSVMMASLKIGAVFIPLNHQLTVYELETIVKEAKLKVLVIDEEFSEVLLNVDAVKEIPYVIQTTKEGFGSFELELQKQPTTEPNVEVHEEDDAIYLFTSGTTGQAKACVIGHKNLHHYFAEIAGQREIPAGERFLSVHPLFHMSGVLSILNCIYHGVTMIFLADSNPAIIWDKIEEEKITTMLAFPAVYSYMLDELNKKERNISTFKVAQSGGTKVPETLIQKYMEKGIYMVQGYGSTEGWVVTSWHPMMGKEKMSSVGKTLKNVEVKIVHPETGHELTTNEVGEIHVKSPYMFKGYWNNEKATKKVVKDNWFNMGDAGMIDDDGFLHIMGRYKDVIIRGGDNVYPDQVEDVIHEIQGVLEVAVVGVPDDFWGEVPRAYIVKDGETTLTEESIIQYCKEKLASYKIPEVVFIDELPKNALGKVLKRELRDVVLVKEGHHHHHH | soluble
3 | MSLRTNEHNFHNIEEEIKHVAVYLRLSRGEDESELDNHKTRLLNRCELNNWSYELYKEIGSGSTIDDRPVMQKLLTDVEKNLYDAVLVVDLDRLSRGNGTDNDRILYSMKVSETLIVVESPYQVLDANNESDEEIILFKGFFARFEFKQINKRMREGKKLAQSRGQWVNSVTPYGYIVNKTTKKLTPSEEEAKVVIMIKDFFFEGKSTSDIAWELNKRKIKPRRATEWRSSSIANILQNEVYVGNIVYNKSVGNKKPSKSKTRVTTPYRRLPEEEWRRVYNAHQPLYSKEEFDRIKQYFECNVKSHKGSEGHHHHHH | soluble
4 | MSLSAFDAFPLGQPAFVTNILDRAAHLRRDDEKLFALEQKPSSRAYVVHRDSLLVKREGENVRALLGIDEALKCGANPGTIFLGLRDGAAVFGMGLSQAAAEKLVGREDYSLTELRGMAMQGAIPPDELSAIAMAKSMVSWHQRHGYCANCGTRSAMKEGGWKRDCPACKAEHFPRTDPVVIMLVASGEKCLLGRQKQFPPGMFSCLAGFVEAAETIEDAVRREILEESGIRCTDVQYYMTQPWPYPSSLMIGCSARALNEDIVVDHSELEDARWFTREEAALMLTRTHPDGLAGPHPFAIAHHLLGRWVHDKSGEGHHHHHH | soluble
5 | MSLSATNTNLHDLLARRIPGHALEQPFYTSPEIYQQDLEHIFYREWLYAIPACQLVKPGSYATLRIGAYNIVIVKGRDGEIRAFHNSCRHRSSIVCKAREGQVAKLVCPYHQWTYDLDGKLIWANSMGPDFDPTQHGLRSVALRNLKGLIYICLADTPPDFEAFARAAEPYLGVHDLQDAKVAYSSSIIEKGNWKLVWENNRECYHCSGNHPALCRSFPLDPEVAGVSADGSISQRIQDHFDACAAAGAPAQFLLGGDGQFRLARMPLQETAVSYTMDGKAAVARQLGRVAKPDAGSLLVFHYPSTWNHFLPDHSLTFRVTPISPTETEVTTTWLVHKDAVEGVDYDLQHLTEVWIATNDEDREIVETNQEGIFSPAYIPGPYSPDWESGVIQFIDWYAAWMERSLAPSRMAAEEGHHHHHH | soluble
6 | MSLSDAAISCSWKPFFRELATRLLDYEDRQPELLAALRDASISINHDEGEPLREVDPFTFFSLVLKHTSDATALPLFARVGAALGVQAPSPTDLIGVPWSNPMNAWFFAYRSQRQPGDVPLLWRLARQAVAGILDAQTFEDALKIRKVALPKLTQGLFWLNPERFLALNAVNVPYLQARGLQAAGQVQTLAEYETVLEAAHKLNPDFAALSHRAWLNSQTAALEGNHFPFARYQADAQEFAGDKVKGNLVLDRRYAPLLLDLMAGEWETLKPSRSPYSGREQLAVKVALGGGVKTDGGAFARALLFADDSGFEYVPFSAGLTLEAGLPDGRGDGPRQALQEPARQHTLLTALNAPLPAGLEATLTLNTDFGALFLLPLGPGREAEAAQQLQQYMSGVGRSRRLRVGLSLLPEHLESDKFPELLDAALTYLDALVDLLDGLMRPSEETSTEEIGVPGTRPVAPTPAAFVPVPGVPLNQILYGPPGTGKTYRVVDEALSVLDPAFLSAHPGSEGRAARKARYDELAAQGQISFVTFHQSFGYEDFIEGIKPVMSGGALSYVLQDGVFLEAVRSAGGALAPAAPEAGPSTETQPLVRPDAQVWRMYIDGTAPVSRIRDLSLGRGELRMGSYGKPPRDLTQAGVEDLSGRQLLFKESVRVGDLMLLATAADRIGAVGVVTGDYRFDPHSDPTFATDYAHTRSVKWLAQDLNVGATETLGKSFAPPTLQRVADVTPAQVLQALGVSTAGGETAHAPTPRPHVLIIDEINRGNISKIFGELITLLESGKRTGAPEALTVTLPLSRRPLSVPQSLYVIGTMNTADRSLTLLDAALRRRFVFRPVWPQPEVLPVLDLGGTALDLRKFLHVINDRIERLLSREQVIGHAYLLGLPATLGGVSSALRERILPLLEEYFFEDWSKIREVLGDESKAEALQFIHRSGSGPELRYRLNPEAFENIEAFTGVYAGVSDQDFPFDEGHHHHHH | soluble
7 | MSLSDFLILSDPDLDTLGITTDEIQTALEAAIRAQIRATVHVAPKSALLPGDGRYVMTTLATGNSPALTVVKSVMVSPDNPARGLPGTEGVLLVQDSETGQLRALMQAGWITRMRTAGLSALVARRLGDPAARVVAFIGAGAQARAHLAALCDLFPLQRAVILGRGAENIARLSAAARARGLQAEIADNPHQAIADADLVVSSVTLDHQMTPFLDARWLKPGAFASLTDTGLPWQPDGMAALDPLYIDDLAQEAANPRPMIDPARVGGDLAALLGEDLHSTNVNRHDPSRRAGFLFRGPAIADFALAALALHRAQSLGAGRDTAWPDATREGHHHHHH | soluble
8 | MSLSDGDYDYLIKFLALGDSGVGKTSVLYQYTDGKFNSKFITTVGIDFREKRVVYRASGPDGATGRGQRIHLQLWDTAGQERFRSLTTAFFRDAMGFLLLFDLTNEQSFLNVRNWISQLQMHAYCENPDIVLCGNKSDLEDQRVVKEEEAIALAEKYGIPYFETSAANGTNISQAIEMLLDLIMKRMERCVDKSWIPEGVVRSNGHASTDQLSEEKEKGACGCEGHHHHHH | soluble
9 | MSLSDGYHRSPSSRVPRIEGCQHTADASPSDATGPRRHAMTAHNREPVDYLAGEMPLHRYCAHHAAQTPERIALLWYGRTICWRELDQLSTRLAVQFQRLGVARGDRVALFLQNCPQAILAHLAAAKLGAIAVPCLPLSRQHELRDQLTDCGAKILIAAADLMPIVDAARPGTAIATVITTRYADLQPAQPACRKALAVPPELIAADAASAPAGRGQAGSGQFDLMQLLAEPVDVAERNAVAAIQVDLDEVALMIYTSGTTGRPKGAMLTHRNALYKTAVTVQMSGIHAADVLLAAAPLSHIAGMLMGMNLMLYAGAPTILLFRFDPLAVLQAIDRYCVTWWYSMTPMNLAVMAHPEAGQYRMASLVNNPCTSFGAPLTEAIADRWRAFAGPKCRIYEAAYGLSETHTCDTVTPPDAPRWGWHGKIVPQTEVRIVDPRTGTALPPGRSGEITIRSPGVFRGYWRRDEATRAALQDGFLRTGDIGQVSPDGYLQWQGRLKELIKVSGYSVFPEDVEALLSRHPAIRQVAVTPLPDPDKGEVVCAHVVRMSGTALTEAELIAWSRENMAPYKVPRRVRFHDALPATVTGKILRRLLREEAAVAEGHHHHHH | soluble
10 | MSLSDKHIKQTVLNSNDNRISPSHVCDIFLPQNGLSERWKAFTRRRFVIAETGFGTGLSFLTACQQFTQFRQANPTATVKELHFISFEQHPLTKSDLIKATEKWPEFAHFSQQLHAHYPPAVSDCHRIVLDEGLITLDLWFGNITDSMPQVWTNDDGIVDAWFTDGFATESNAALLKSLTIINSIAILARENSTIHAITYHQGNQQDVLEQSLTEAGFDMTESHNEGHHHHHH | soluble
11 | MSLSDKIRIGMTVSSTGSFVLASQSGVRGVEVWVDDVNRRGGIEIKGKKYPVELVKLDDRSDKQMVTRVYERLIVDEKVDLVFAPFGSTLTAAAGTVTERLGKYMMVWSAASDDLYKQGFKYMVSGTQMPVSAMLRAPMALAGKLGVKKAAILYSDEPFPAGLADGGRAQAAKNGIDVVLYEKYPKGQKDFSTLLQKAKAAGADALVPTSYEGDLISMTRQMKQLDINFPYTFMVYASTPQFQAIGADSNYIFSHTNYHPAINWKVNAGLTREQFGKAYDTLFPKAEFPPDFQTALAYGAGALTEEIIKKAGATDAAALKQASMDLSDKVTVMAGPYAIDETGKQLQMPFPVVQLLPGKGMVPVYPEDVAVEKAVYPAPAWNKAKGIITITTDPNSSSVDKLAAALEHHHHHH | soluble
12 | MSLSDQSQIIAGFTLWHLSLPVTARRDHGIGSVAGAVEVVVLRLQADSGAVGYGEASPWVVFTGSVEATYAALDRYLRPLVLGRAVGDHAAIMEDARAAVAHCTEAKAALDTALYDLRARIAGVPVWALLGGRCRDRIPLSCSIADPDFDKDLALMQRLQDDDVRIIKLKTGFKDHAFDMMRLERLRADFPAFDIRVDYNQGLHHDVALARVRDVATFKPTFIEQPVKAHLRGLMARIRDAVDVPLLADESIFGPEDMAEHPEIADGVSIKIMKSGGLTRAQTVARMAAARGLSAYGGDMFEAGLAHLAGAHMIAATPEITLGCEFYQATYFLCDDILAAPFPVADGHVLVPDTPGLGVDVDEDALARFAVAREGHHHHHH | soluble
13 | MSLSEKTFPSHARVVIVGGGVMGVGLAYHLAHEGWGHDTVLLEKAELTSGSTWHAAGQITHSTSSYGLGKCVDYNIGLYSGGLEAETGQAVTWHGCGSFRLAYTEDEMDWLRHTLSVGRSLGFNIDLVSPQRVAELHPFYNLDGVLGALHTPDDGHVDPTNVTMALAAGARAKGVRIIRRCRASNITQLASGEWQVETDQGTITCEHVVNAGGTYARQMGEWSGLQLPMTSMTHHYFVTENVPEFEALDRELPVIRDDKKVSGYIRMEQKRGLIGIYEKANPNAVWLDECPWDYENWLFDADYDRVMPWLEESLNRMPVLAERGITREVHGAISHPPDGNPLIGPAPGVRNYWCCCGTQIGIGWGPGLTRELARWMVHGAADISMRDYDPRRFGSYATKEWQVIKAKEDYCLRHEIPFPHFNRLAGRPVKPSPLYDRLKSKGAVFEEVYGHERPRWFAKAGIAQHDHYGFGRTPVHDVVGDECRAVREAAGIMDISAFTKVELSGPEAETLLDRLVANRLPRKTGGIALTHMLNAAGRIELETTVVRLASDRFYLVCAAFFEQRLLDHLDRHRGTADVTVTLRSNDWAALTLNGPRSRDILATCTDAPLDNAAFPWLTAQEITVAGHRLWAFRMSYAGELGWEFHMPRDAALAVYDALWAAGAPLGLADYGSFAMNAMRMEKGFKGAGELTNEVTLAEADVLRFARTDKAYIGREATLAPARRFVCAYLEIAPDGAHDGHGGEAVLLQGKVVGSTASVAYGHSCGKILAFAYVRPEANVAGTEVEVVIAGTPRPARILGAPAYDPEGLLPRTDAKGIITITTDPNSSSVDKLAAALEHHHHHH | soluble
14 | MSLSELINNREKRVQTLKEIILHLHRGEAPAAVRGRLAALIADVDASEVAAMEQELMAEGMSHQEVQSLCDLHADVLQDVMTRPATPMPLAPGHPVHQLRAENRALGAAAQTARQRVRELAALADEGRFDAERVEALRAFEVLWEVDRHYQRKEHLVFSVLERHGTTGPSKVMWGKDDEVRDLLKASLAALGEEGVSGAELKVVAETVLEPALSALEGMIYKEENILLPMTLGLFTAEDWGEIFRQSPEYGWCLVQPGTGYRPPEPRPVTDAVKLPPAQAVQFPSGTLSFEQLLGLFQALPVDLTFVDRDDRVAFFSEGPDRVFARSRAVIGREVKHCHPPKSVHVVERIVEDFKAGRQSVAEFWIDLHGRFVHIRYFAVRDAAGAYLGTLEVTQDLTRLRALEGERRLLAYDAGPAHDPITREGHHHHHH | soluble
